Results on two proteins are retold here after US20180371433A1 (UNIVERSITY OF FLORIDA RESEARCH FOUNDATION, published 2018).

The target of series [1] is T1, SAMP1 with deletion of the C-terminal diglycine residues (ΔGG), D4GUF6.
T1 chain: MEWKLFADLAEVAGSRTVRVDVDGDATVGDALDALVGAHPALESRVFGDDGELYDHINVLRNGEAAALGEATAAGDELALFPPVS

In series [2] the target is T2, ubiquitin-like SAMP1, D4GUF6.
T2 chain: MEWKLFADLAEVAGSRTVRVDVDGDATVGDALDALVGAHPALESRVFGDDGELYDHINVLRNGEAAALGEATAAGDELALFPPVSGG

Series [3] deals with the molecule itself. The series is described as follows: size exclusion chromatography (Superdex 200); hexamers of ~134 kDa and trimers of ~64 kDa. The protocol:
HvPPA (HVO_0729, UniProt: D4GT97) was expressed with an N-terminal poly-histidine tag (His₆) in Hfx. volcanii H26-pJAM2920 (Table 1). Hfx. volcanii cells were grown to stationary phase (OD₆₀₀ of 3-3.5) (4×1-liter cultures in 2.8-liter Fernbach flasks) and harvested by centrifugation (10-15 min at 9,200× g and 25° C.). Cell pellets were resuspended at 5 ml per g wet weight cells in Tris-salt buffer (20 mM Tris-HCl, pH 7.5, 2 M NaCl and 2.5 mM MgCl₂) supplemented with 40 mM imidazole and 1 mini-tablet protease inhibitor cocktail (Roche product no. 05892791001) per 10 ml buffer. Cells were lysed by passing through a French Press (three times at 20,000 psi). Whole cell lysate was clarified by centrifugation (twice for 30 min at 9,200× g and 4° C.) and sequential filtration using 0.8 μm and 0.2 μm cellulose acetate filters (Thermo Scientific Nalgene). Clarified cell lysate was applied to a HisTrap HP column (5 ml, 17-5248-01, GE Healthcare) pre-equilibrated and washed in 100 ml of Tris-salt buffer with 40 mM imidazole. Fractions containing HvPPA were eluted in Tris-salt buffer with a 25 ml gradient from 40 mM to 500 mM imidazole. […] Purity of HvPPA was assessed by Coomassie Blue stained SDS-PAGE gels and PPi activity assay. […]
(In general: In gel filtration, larger molecules generally elute earlier.)

B1: UbaA of Hfx. volcanii (protein)
chain: MTLSLDATQLDRYSRHIIMDEVGPEGQGRLLSSRVVVVGAGGLGAPAIQYLAAVGVGELVVVDDDVVERSNLQRQVVHCDDDVGTPKAESAAAFVRGLNPDVSVEPVEARVDKSNVHEVVAGSDVVVDASDNFPTRYLLNDVCRFEGIPLVHGAIYKFEGQATTLVPDGPCYRCLFPEAPEPGTVPDCATTGVLGVLPGTVGCIQATEAMKLLLDEGEALDGRLLFYDAMDMTFETVPYRTNPDCPVCGEGGVDSIEDIDYVESCAISLD
Consider B1, for which the “Pi detected by colorimetric (malachite green) assay in the HvPPA-coupled adenylation assay” value in series [1] was “Deletion of the C-terminal diglycine residues of SAMP1 (ΔGG) were found to significantly reduce the level of Pi detected by this assay”; in series [2], “Significant levels of Pi were detected when UbaA and HvPPA were coupled with ATP and SAMP1 in the reaction”.

B2: HvPPA with an N-terminal poly-histidine tag (His6-HvPPA) linked with a thrombin-cleavage site (enzyme)
chain: MVNLWEDMETGPNAPDEIYAVVECLKGERNKYEYDKDIPGVVLDRVLHSNVHYPSDYGFIPQTYYDDEDPFDVLVLVEDQTFPGCVIEARPVALMKMDDDGEQDDKVIAVPVEDPRYDHIEDLDDIPQQTLDEIDEFFATYKNLEAGKEVETLGWEDKQAAKDAIEHAMDLYEENFA
notes: Expressed in Hfx. volcanii H26-pJAM2920; Purified by Ni2+ IMAC and SEC as homo-hexamers (~134 kDa) and homo-trimers (~64 kDa); also called HVO_0729; Haloferax volcanii inorganic pyrophosphatase; not shown: N-terminal His6 tag and thrombin-cleavage site from vector pJAM503
For B2, in series [3], the binding result is reported as “binds”.
